Values of other authors, collected in patent publication US9919022B2, “Use of angiotensin II (AII) receptor agonists to prevent or reduce hemodialysis-associated skeletal muscle cramps” (priority 2015, dated 2018).
Like-named read-outs stand apart in the source and are kept apart here.

Question: For `CC[C@H](C)[C@H](NC(=O)[C@H](Cc1ccc(O)cc1)NC(=O)[C@@H](N)C(C)C)C(=O)N[C@@H](Cc1cnc[nH]1)C(=O)N1CCC[C@H]1C(=O)N[C@@H](Cc1ccccc1)C(=O)O` [angiotensin IV, Val-Tyr-Ile-His-Pro-Phe], which serum half-lives (serum) is on record?
Answer: less than one

Question: Which serum half-lives (in vivo) does the source give for “Arg-Val-Tyr-Ile-His-Pro-Phe [Angiotensin III]” here?
Answer: less than one

Question: Which terminal serum half-life (serum) does the source give for “H-Asp-Arg-Val-Tyr-Ile-His-Pro-Phe-OH (H-DRVYIHPF-OH; listed as Homo sapiens) [angiotensin II]” here?
Answer: less than 30 minutes
